The record followed here is patent publication US20060204507A1 (LUDWIG INSTITUTE FOR CANCER RESEARCH, published 2006).

For this experiment, the target named is T1, HLA-Cw3 on target cells.
T1 construct: also called HLA-Cw*0304
Description: inferred from FW/92 T cell recognition of peptide-pulsed target cells with lactacystin (ELISPOT).

Consider LAMPFATPM [Nonapeptide consisting of amino acids 13-21 of SEQ ID NO: 4], for which the binding result was “binds”.
